Drawing on article PMC5587760, “Halotolerant aminopeptidase M29 from Mesorhizobium SEMIA 3007 with biotechnological potential and its impact on biofilm synthesis” (Scientific Reports, 2017), this text covers Km, kcat and stoichiometry N for two substances.

The test system of data set [1] is CC(C)C[C@H](N)C(=O)Nc1ccc([N+](=O)[O-])cc1. In words: purified protein. As to conditions: 3 mM Co2+, pH 8.5, 40 °C (abstract: 45 °C optimum).
Data set [2] addresses MesoAmp, aminopeptidase M29 (Aminopeptidase T) from Mesorhizobium SEMIA 3007 (Mesorhizobium SEMIA 3007). Kind of data set: SEC; Hiload16/600 Superdex 200, 100 mM Tris-HCl pH 8.0, 200 mM NaCl, 5% (w/v) glycerol, 0.5 mL/min; native mass estimated from a calibration curve of standard proteins and compared with the mass on SDS-PAGE.

MesoAmp (Mesorhizobium sp. SEMIA 3007): in data set [1], the Km (commonly the concentration of substrate that gives half-maximal velocity) is 236.4 ± 18.2 µM; the kcat (commonly the number of substrate molecules converted per active site and unit of time at saturation) is 712.1 ± 88.12 s⁻¹.
As to “MesoAmp, aminopeptidase M29 (Aminopeptidase T) from Mesorhizobium SEMIA 3007 (enzyme)”, the stoichiometry N (usually the number of molecules, sites or subunits per partner or assembly) in data set [2] was 2.
